The target in the assay is T1, recombinant YFV E protein (soluble E, sE; YFV Asibi strain) (Yellow fever virus, Asibi strain, UniProt Q6DV88 286-678).
T1 construct: also called YFV E antigen; YFV E monomer
Put plainly: BLI monovalent (IgG on tip).

T1 sequence (Q6DV88 286-678): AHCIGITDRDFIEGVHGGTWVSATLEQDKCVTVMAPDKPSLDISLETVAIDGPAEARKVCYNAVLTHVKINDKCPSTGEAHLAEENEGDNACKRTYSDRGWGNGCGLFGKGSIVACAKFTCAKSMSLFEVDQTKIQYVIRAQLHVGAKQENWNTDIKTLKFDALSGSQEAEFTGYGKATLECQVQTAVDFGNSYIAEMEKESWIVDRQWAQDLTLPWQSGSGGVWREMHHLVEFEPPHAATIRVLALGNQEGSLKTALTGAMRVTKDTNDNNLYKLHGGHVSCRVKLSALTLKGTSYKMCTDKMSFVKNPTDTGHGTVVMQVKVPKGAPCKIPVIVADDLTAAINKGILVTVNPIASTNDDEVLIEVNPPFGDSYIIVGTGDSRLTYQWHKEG

B1: ADI-48895 (antibody, V domains shown)
VH: EVQLLESGGGLVKPGGSLRLSCAASGFTFSDYYMSWIRQAPGKGLEWVSYITSSGNTKYYADSVKGRFTISRDNAKNSLYLQISSLRAEDTAVYYCARDWAELTTITNYFYPWGQGTTVTVSS
VL: DIQLTQSPSSVSASVGDRVTITCRASQGISSWLAWYQQKPGKAPKLLIHAASSLQSGVPSRFSGSGSGTDFTLTISSLQPEDFATYYCQQAKSFPPTFGQGTRLEIK
notes: full-length IgG; also called Antibody Number 18
B1: the dissociation constant (Kd) is 4.49 nM.

B2: ADI-49188 (antibody, V domains shown)
VH: EVQLLESGPGLVRPSGTLSLTCAVSGGSISTTDWWSWVRQPPGKGLEWIGEINQSGSTSYSPSFKSRVSISVDKSKRQFSLKLTSVTAADTAVYYCARDSWSGPTRNWFDPWGRGTLVTVSS
VL: QSVVTQPPSVSAAPGQKVTISCSGRSSNIGNSDVSWYQQFPGRAPKLLIYDNDERPSGIPDRFSGSKSGTSATLDITGLQTGDEADYYCGTWDSSLGGVIFGGGTKVTVL
notes: full-length IgG; also called Antibody Number 31
For B2, the Kd worked out at 9.54 nM.

B3: ADI-45151 (antibody, V domains shown)
VH: EVQLLESGGGVVQPGKSLRLSCAASGFSFGDYGMHWVRQTPDKGLEWVAVILFDGSKKFYADSVRGRFTISRDNSKNNLYLQMSSLRPEDTAVYYCAKFPLRDGGSGEGFDYWGQGTLVTVSS
VL: DIVMTQTPLSSPVTLGQPASISCRSSQSLVHSDGNTYLSWLQQRPGQPPRFLIYKISNRFSGVPDRFSGGGAGTDFTLKISRVEAEDVGVYYCMQASQFPLTFGGGTKVEIK
notes: full-length IgG; also called Antibody Number 149
On to B3, for which the dissociation constant (Kd) was greater than 100 nM.

B4: ADI-49183 (antibody, V domains shown)
VH: QVQLVESGGGLVKPGGSLRLSCVASGFTFNNYYMRWMRQAPGKGLEWVSQISSSGSIKDYADSVKGRFTVSRDNAKNSLYLQLNSLRADDTAVYFCARELSSRIDYWGQGTLVTVSS
VL: QSALTQPASVSGSPGQSITISCTGTGSDVGGYNFVSWYQQHPGKAPKLMLYDVNNRPSGVSNRFSGSKSGNTASLTISGLQAEDEADYYCSSYPGTSALVIFGGGTRLTVL
notes: full-length IgG; also called Antibody Number 24
For the molecule B4, the Kd was found to be 2.21 nM.

B5: ADI-42228 (antibody, V domains shown)
VH: EVQLLESGGGLVQPGRSLRLSCAASGFTFDDYAMHWVRQPPGKGLEWVSGISWNGGGIGYADSVKGRFTISRDNAKNSLYLQMNSLRADDTALYYCAKAENRIGYCSAGSCYLTYFDYWGQGTLVTVSS
VL: QPVLTQPASVSGSPGQSITISCTGTSSDVGGYNYVSWYQQHPGKAPKLLIYDVSNRPSGVSNRFSGSKSANSASLTISGLQAEDEADYYCNSYTSSSTLVFGGGTKLTVL
notes: full-length IgG; also called Antibody Number 19
As to B5, the equilibrium dissociation constant (Kd) is 8.64 nM.

B6: ADI-49030 (antibody, V domains shown)
VH: QVQLVQSGGGLVQPGGSLRLSCAASGFTFSDHYMDWVRQAPGKGLEWVGRTRNKANSYTTEYAASVKGRFTISRDDSKNSLYLQMNSLKTEDTAVYYCAGVGITGTTGIDYWGQGTLVTVSS
VL: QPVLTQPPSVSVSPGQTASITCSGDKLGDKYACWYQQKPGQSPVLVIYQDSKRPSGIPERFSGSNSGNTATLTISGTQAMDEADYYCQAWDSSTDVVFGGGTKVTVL
notes: full-length IgG; also called Antibody Number 151
For the molecule B6, the dissociation constant Kd came to 125 nM.

B7: ADI-49205 (antibody, V domains shown)
VH: EVQLVESGGGVVQTGRSLRLSCAASGFTFSISGMHWVRQAPGKGLEWVALIWYDGTKKYYADSVKGRFTISRDDFKNTVYLQMNSLRADDTAVYYCARIKSDAFDLWGQGTTVTVSS
VL: QSALTQPPSASGSPGQSVTISCTGTSSDVGGFNYVSWYQQHPGRAPKLVIYEVNRRPSGVPDRFSGSKSGYTASLTVSGLQAEDEADYYCFSYAGSNNYVFGTGTKVTVL
notes: full-length IgG; also called Antibody Number 148
With B7, the Kd amounted to 12.9 nM.

B8: ADI-42144 (antibody, V domains shown)
VH: QVQLVESGGGVVQPGRSLRLSCAASGFTFSSYTMHWVRQAPGKGLEWVAVISYDGSNKYYADSVKGRFTISRDNSKNTLYLQMNSLRAEDTAVYYCARGGDYGDYESNNPAEYFQHWGQGTLVTVSS
VL: QSVLTQPPSVSGAPGQRVTISCTGSSSNIGAGYDVHWYQQLPGTAPKLLIYGNSNRPSGVPDRFSGSKSGTSASLAITGLQAEDEADYYCQSYDSSLSGHVVFGGGTKLTVL
notes: full-length IgG; also called Antibody Number 26
Regarding B8, the Kd was determined as 10.9 nM.

B9: ADI-50200 (antibody, V domains shown)
VH: EVQLLESGGDLVQPGRSLRLSCAASGFNLIDYAMHWVRQVPGKGLEWVSGISWNSRSIGYADSVKGRFTISRDNAKNSLYLQMDSLKHEDTALFYCAKGAAAGPFPYFYYAMDVWGQGTTVTVSS
VL: DIQVTQSPSSLSASVGDRVTITCRASQGISNNLAWYQQKPGIFPKLLIYAASTLQSGVPSRFSGSGSGTDFILTISSLQPEDVATYYCQKYQSAPPTFGGGTKLEIK
notes: full-length IgG
Consider B9, for which the dissociation constant Kd is greater than 100 nM.

B10: ADI-50201 (antibody, V domains shown)
VH: QVQLVESGGGLVKPGGSLRLSCAASGFIFSDYYMNWIRQAPGKGLDWVSTISGSGKSIYYADSVKGRFTISRDNAKNSLYLQMNSLSAEDTAVYYCARVSPLDDGYGYTYYGMDVWGQGTTVTVSS
VL: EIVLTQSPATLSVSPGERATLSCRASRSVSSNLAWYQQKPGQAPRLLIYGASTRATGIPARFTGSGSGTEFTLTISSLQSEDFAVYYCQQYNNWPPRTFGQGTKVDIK
notes: full-length IgG; also called Antibody Number 17
Consider B10, for which the Kd was 13.1 nM.

B11: ADI-50219 (antibody, V domains shown)
VH: QVQLQESGPGLVKPSETLSLTCTVSGDSISVSYWSWIRQFPGKGLEWIGYIYNSGNANYNPSLESRVTISIDTSKNRFSLRLSSVTAADTAVYYCAGHREDPYGAYGASWGQGTLVTVSS
VL: EIVLTQSPATLSSSPGERATLSCRASQSVNSYLVWYQQKPGQAPRLLIYDASNRATGIPARFTGSGSGTDFTLTISSLEPEDFAVYYCQQRTNWPFTFGQGTKVDIK
notes: full-length IgG; also called Antibody Number 27
With B11, the Kd was found to be 0.859 nM.

B12: ADI-48897 (antibody, V domains shown)
VH: EVQLLESGPGLVKPSETLSLTCTVSGGSLSSDSHFWGWIRQPPGKGLEWIGYIYYSGNANYNPSLQSRVTISLDKSKNQFSLRLTSVTAADTAVYYCASRKEVRGTEDYFDYWGQGTLVTVSS
VL: EIVLTQSPATLSLSPGERATLSCRASQSVNRYLAWYQQKPGQAPRLLIYDASNRATGIPARFSGSGSGTDFTLTISSLEPEDFAVYYCHQRTNWPWTFGQGTKVEIK
notes: full-length IgG; also called Antibody Number 28
Take B12: the Kd was determined as 3.22 nM.

B13: ADI-49189 (antibody, V domains shown)
VH: EVQLVESGGGLVKPGGSLRLSCAASGFTFSDYYMSWIRQAPGKGLECIACISSSGSMIYYADSVKGRFTISRDNAKNSLYLQLNSLRVEDTAVYYCAREGTRGRMDWGQGTLVTVSS
VL: QSVLTQPASVSGSPGQSITISCTGTSSDIGGYNYVSWYQQHPGKVPKLVIYDVSNRPSGVSNRFSGSKSGNTASLTISGLQAEDEADYYCSSYTSGTTLGVFGTGTKLTVL
notes: full-length IgG; also called Antibody Number 30
Regarding B13, the Kd amounted to 12.7 nM.

B14: ADI-42194 (antibody, V domains shown)
VH: EVQLQESGPGLVKPSETLSLTCTVSGGSVSSGSYYWSWIRQPPGKGLEWIGYIYDSGNTNYNPSLKSRVTISVDTSKRQFSLRLTSVTAADTAVYYCAKVEEDGYTNVVRDYWGQGTLVTVSS
VL: EIVMTQSPATLSLSPGERATLSCRASQSVSNYLAWYQQKPGQAPRLLISDASSRATGIPARFRGSGSGTDFTLTISSLEPEDFAVYYCLQRTNWPFTFGPGTKVEIK
notes: full-length IgG; also called Antibody Number 29
Consider B14, for which the Kd is 5.44 nM.

B15: ADI-45123 (antibody, V domains shown)
VH: EVQLLESGGGLVQPGGSLRLSCAASGFIFSNYWMSWVRQAPGKGLEWVANIKPDGSEKYYVESVRGRFTISRDNAKNSLYLQMNSLRAEDTAVFYCARDGGTVSDGLDVWGQGTTVTVSS
VL: DIRVTQSPSSLSASVGDRVTISCRASESISIYLNWYQQKPGKAPNLLIYAASSLQRGVPSRFSGSGSGTDFTLTITSLQAEDFATYYCQQTFSIWTFGQGTKVEIK
notes: full-length IgG
As for B15, the Kd turned out to be 2.1 nM.

B16: ADI-42190 (antibody, V domains shown)
VH: QVQLVESGGGLVKPGGSLRLSCAASGFTFSDDYMSWIRQAPGKGLEWVSYISGSGRAMYYADSVQGRFTVSRDNAKNSLFLQMNNLRAEDTAVYYCAKHTGDKPLVWAPSVYGLDVWGQGTTVTVSS
VL: QSVLTQPASVSGSPGQSITISCTGTSSDIGAYNYVSWYQQHPGKAPKLMIYDVTNRPSGVSNRFSGSKSGSSASLTISGLQTEDEADYYCSSYTRRSTLVFGGGTKLTVL
notes: full-length IgG; also called Antibody Number 22
Turning to B16, the Kd is 13.1 nM.

B17: ADI-42201 (antibody, V domains shown)
VH: EVQLVESGGGVVQPGRSLRLSCVASGFTLRSYGMHWVRQVPGKGLEWVAVSWYDGSNKHYADSVKGRFSISRDNSKNTLYLQMNSLRAEDTAVYYCARAQDGQQLVNYYGMDVWGQGTTVTVSS
VL: DIQMTQSPSSLSASVGDRVTITCRASQSISSYLNWYQQKPGEAPNLLIFAASILQSGVPSRFSGSGSGTDFTLTISSLQPEDFATYYCQQSYSTPYTFGQGTKVEIK
notes: full-length IgG; also called Antibody Number 25
As to B17, the equilibrium dissociation constant (Kd) amounted to 113 nM.

B18: ADI-42786 (antibody, V domains shown)
VH: EVQLVESGPGLVKPSGTLSLTCAVSGGSISSSYWWSWVRQSPGKGLEWIGEVYHSGSTHYNPSLKSRVTISVDKSKNQFSLKLTSVTAADTAVYYCARDGEGHYYRSGDNWFDRWGQGTLVTVSS
VL: QSVLTQPPSVSAAPGQKVTISCSGSSSNIGSNYVSWYQQFPGTAPKLLIYDNSKRPSGIPDRFSGSMSGTSATLGITGLQTGDEADYYCGTWDSSLSAVVFGGGTKVTVL
notes: full-length IgG; also called Antibody Number 15
Regarding B18, the Kd was determined as 12.7 nM.

B19: ADI-49154 (antibody, V domains shown)
VH: QVQLQESGPGLVKPSGTLSLTCAVSGSSITSSHWWSWVRQPPGKGLAWIGDIYHSGGTTYNPSLKSRVTISVDKSKNQFSLKLSSVTAADTAVYYCARVSVSTSAWYADYWGQGTLVTVSS
VL: QSVLTQPPSVSAAPGQKVTISCSGSSSNIGNNYVSWYQQLPGTAPKLLIYDNNKRPSGIPDRFSGSKSGTSATLGITGLQTGDEANYYCGTWDTSLSTVFGGGTKLTVL
notes: full-length IgG; also called Antibody Number 23
With B19, the Kd was determined as 141 nM.

B20: ADI-50533 (antibody, V domains shown)
VH: QVQLQESGPGLVKPSGTLSLTCAVSGGSISSSNWWSWVRQPPGKGLEWIGEIYHSGSTNYNPSLKSRVTISVDKSKNQFSLKLSSVTAADTAVYYCARVVWYSSSSHLFDYWGQGTLVTVSS
VL: QPVLTQPPSVSAAPGQKVTISCSGSSSNIGNNYVSWYQQLPGTAPKLLIYDNNKRPSGIPDRFSGSKSGTSATLGITGLQTGDEADYYCGTWDSSLSAGKVFGGGTKLTVL
notes: full-length IgG; also called Antibody Number 147
As for B20, the Kd is greater than 100 nM.

B21: ADI-42198 (antibody, V domains shown)
VH: EVQLVESGPGLVKPSGTLSLTCAVSGGSISSNKWWSWVRQPPGKGLEWIGEIYHSGSTSYNPSLKSRVSISVDKSKNQFSLKLSSVTAADTAVYYCARVEWAYSSSWWLDYWGQGTLVTVSS
VL: QSVLTQPPSVSAAPGQKVTISCSGSSSNIGNNYVSWYQQLPGTAPKLLIYDNNKRPSGIPDRFSGSKSGTSATLGITGLQTGDEADYICGTWDTSLSAGGVFGGGTKLTVL
notes: full-length IgG; also called Antibody Number 21
For B21, the Kd stood at 33.2 nM.

B22: ADI-42210 (antibody, V domains shown)
VH: EVQLLESGPGLVQPSGTLSLTCTASGGSISSSNWWSWVRQPPGKGLEWIGDIYHTGSTSYNPSLKSRVTISVDKSKNQFSLKLSSVTAADTAVYYCARAELSAWYYFDHWGQGTLVTVSS
VL: QSVLTQPPSVSAAPGQKVTISCSGSSSNIGNNYVSWYQQLPGTAPKLLIYDNNKRPSGIPDRFSGSKSGTSATLGITGLQTGDEADYYCGTWDTSLSAGRVFGGGTKLTVL
notes: full-length IgG; also called Antibody Number 16
Regarding B22, the Kd was determined as 18.7 nM.

Usually Kd stands for the concentration at which binding is half-saturated.

Values taken from patent publication US20240218054A1 (MABLOC, published 2024).
